Data taken from PMC7817217 (Proceedings of the National Academy of Sciences of the …, 2020).
Read-outs that look alike come from different tables or passages of the source.

Legend:
[1] = target: SARS-CoV-2 spike protein receptor binding domain (RBD) (SARS-CoV-2, UniProt P0DTC2 319-541); assay: SPR; details: both partners purified
crystal structure = target: the molecule itself; assay: crystal structure
[2] = target: SARS-CoV-2 spike protein receptor binding domain (RBD) (SARS-CoV-2, UniProt P0DTC2 319-541); assay: SPR; details: both partners purified; remark: listed apart in the source
[3] = target: SARS-CoV-2 spike protein receptor binding domain (RBD) (SARS-CoV-2, UniProt P0DTC2 319-541); assay: SPR

| Binder | koff [1] [s⁻¹] | Kd [2] [µM] | also measured |
| --- | --- | --- | --- |
| bat ACE2 from Rhinolophus macrotis, expressed in E. coli and refolded (bACE2-Rm-E. coli) (domain or fragment) STTEDEAKKFLDKFNSKAEDLSYESSLASWDYNTNISDENVQKMDEAGAKWSAFYEEQSKLAKNYPLEEIQNDTVKRQLQILQQSGSPVLSEDKSKRLNSILNAMSTIYSTGKVCKPNNPQECLLLEPGLDNIMGTSKDYNERLWAWEGWRAEVGKQLRPLYEEYVVLKNEMARGYHYEDYGDYWRRDYETEESSGPGYSRDQLMKDVDRIFTEIKPLYEHLHAYVRAKLMDTYPLHISPTGCLPAHLLGDMWGRFWTNLYPLTVPFGQKPNIDVTDAMLNQGWDANRIFKEAEKFFVSVSLPKMTEGFWNKSMLTEPGDGRKVVCHPTAWDLGKGDFRIKMCTKVTMEDFLTAHHEMGHIQYDMAYASQPYLLRNGANEGFHEAVGEVMSLSVATPKHLKTMGLLSPDFREDDETEINFLLKQALNIVGTLPFTYMLEKWRWMVFKGEIPKEEWMKKWWEMKREIVGVVEPVPHDETYCDPASLFHVANDYSFIRYYTRTIFEFQFHEALCRIAQHNGPLHKCDISNSTDAGKKLHQMLSVGKSQAWTKTLEDIVDSRNMDVGPLLRYFKPLYTWLQEQNRKSYVGWNTDWSPYADQSIKVWISLKSALGEKAYEWNDNEMYLFRSSVAYAMREYFLKTKNQTILFGDENVWVSNLKPRISFNFHVTSPGNVSDIIPRPEVEGAIRMSRSRINDAFRLDDNSLEFLGIQPTLGPPYQPPVTI | 0.132 |  | kon [1]: 102000 M⁻¹ s⁻¹ |
| bACE2-Rm (bat ACE2 from Rhinolophus macrotis) expressed in E. coli, residues 19 to 741 (domain or fragment, also called bACE2-Rm-E. coli; bat ACE2-E. coli) STTEDEAKKFLDKFNSKAEDLSYESSLASWDYNTNISDENVQKMDEAGAKWSAFYEEQSKLAKNYPLEEIQNDTVKRQLQILQQSGSPVLSEDKSKRLNSILNAMSTIYSTGKVCKPNNPQECLLLEPGLDNIMGTSKDYNERLWAWEGWRAEVGKQLRPLYEEYVVLKNEMARGYHYEDYGDYWRRDYETEESSGPGYSRDQLMKDVDRIFTEIKPLYEHLHAYVRAKLMDTYPLHISPTGCLPAHLLGDMWGRFWTNLYPLTVPFGQKPNIDVTDAMLNQGWDANRIFKEAEKFFVSVSLPKMTEGFWNKSMLTEPGDGRKVVCHPTAWDLGKGDFRIKMCTKVTMEDFLTAHHEMGHIQYDMAYASQPYLLRNGANEGFHEAVGEVMSLSVATPKHLKTMGLLSPDFREDDETEINFLLKQALNIVGTLPFTYMLEKWRWMVFKGEIPKEEWMKKWWEMKREIVGVVEPVPHDETYCDPASLFHVANDYSFIRYYTRTIFEFQFHEALCRIAQHNGPLHKCDISNSTDAGKKLHQMLSVGKSQAWTKTLEDIVDSRNMDVGPLLRYFKPLYTWLQEQNRKSYVGWNTDWSPYADQSIKVWISLKSALGEKAYEWNDNEMYLFRSSVAYAMREYFLKTKNQTILFGDENVWVSNLKPRISFNFHVTSPGNVSDIIPRPEVEGAIRMSRSRINDAFRLDDNSLEFLGIQPTLGPPYQPPVTI |  | 1.3 | binding result (crystal structure): binds |
| bACE2 from Rhinolophus affinis (bACE2-Ra) (receptor) STTEDRAKIFLDNFNHEAEDLSYQSSLASWEYNTNISDENVQKMDEAGAKWSAFYEEQSKLAKNYPLEEIQTVPVKLQLQILQQSGSPVLSEDKSKRLNSILNAMSTIYSTGKVCKPNNPQECFLLEPGLDNIMGTSKDYNERLWAWEGWRAEVGKQLRPLYEEYVVLKNEMARGYHYEDYGDYWRRDYETEESSGSGYSRDQLMKDVDRIFTEIKPLYEHLHAYVRTKLMDTYPFHISPTGCLPAHLLGDMWGRFWTNLYPLTVPFGQKPNIDVTDAMVNQGWDANRIFKEAEKFFVSVGLPNMTEGFWNNSMLTEPGDGRKVVCHPTAWDLGKGDFRIKMCTKVTMEDFLTAHHEMGHIQYDMAYATQPYLLRNGANEGFHEAVGEVMSLSVATPKHLKTMGLLSPDFLEDNETEINFLLKQALNIVGTLPFTYMLEKWRWMVFRGEIPKEEWMKKWWEMKRDLVGVVEPVPHDETYCDPASLFHVANDYSFIRYYTRTIFEFQFHEALCRIAQHDGPLHKCDISNSTDAGKKLHQMLSVGKSQPWTVTLKDIVDSRNMDVGPLLRYFEPLYTWLQEQNRKSHVGWNTDWSPYSD |  |  | Kd [3]: 0.44 µM |
| bat ACE2 from Rhinolophus macrotis, expressed in insect cells (bACE2-Rm-insect) (domain or fragment) STTEDEAKKFLDKFNSKAEDLSYESSLASWDYNTNISDENVQKMDEAGAKWSAFYEEQSKLAKNYPLEEIQNDTVKRQLQILQQSGSPVLSEDKSKRLNSILNAMSTIYSTGKVCKPNNPQECLLLEPGLDNIMGTSKDYNERLWAWEGWRAEVGKQLRPLYEEYVVLKNEMARGYHYEDYGDYWRRDYETEESSGPGYSRDQLMKDVDRIFTEIKPLYEHLHAYVRAKLMDTYPLHISPTGCLPAHLLGDMWGRFWTNLYPLTVPFGQKPNIDVTDAMLNQGWDANRIFKEAEKFFVSVSLPKMTEGFWNKSMLTEPGDGRKVVCHPTAWDLGKGDFRIKMCTKVTMEDFLTAHHEMGHIQYDMAYASQPYLLRNGANEGFHEAVGEVMSLSVATPKHLKTMGLLSPDFREDDETEINFLLKQALNIVGTLPFTYMLEKWRWMVFKGEIPKEEWMKKWWEMKREIVGVVEPVPHDETYCDPASLFHVANDYSFIRYYTRTIFEFQFHEALCRIAQHNGPLHKCDISNSTDAGKKLHQMLSVGKSQAWTKTLEDIVDSRNMDVGPLLRYFKPLYTWLQEQNRKSYVGWNTDWSPYAD | 0.0692 |  |  |
| bat ACE2 from Rhinolophus macrotis fused to the mouse Fc tag (bACE2-Rm-mFc) (Fc fusion) STTEDEAKKFLDKFNSKAEDLSYESSLASWDYNTNISDENVQKMDEAGAKWSAFYEEQSKLAKNYPLEEIQNDTVKRQLQILQQSGSPVLSEDKSKRLNSILNAMSTIYSTGKVCKPNNPQECLLLEPGLDNIMGTSKDYNERLWAWEGWRAEVGKQLRPLYEEYVVLKNEMARGYHYEDYGDYWRRDYETEESSGPGYSRDQLMKDVDRIFTEIKPLYEHLHAYVRAKLMDTYPLHISPTGCLPAHLLGDMWGRFWTNLYPLTVPFGQKPNIDVTDAMLNQGWDANRIFKEAEKFFVSVSLPKMTEGFWNKSMLTEPGDGRKVVCHPTAWDLGKGDFRIKMCTKVTMEDFLTAHHEMGHIQYDMAYASQPYLLRNGANEGFHEAVGEVMSLSVATPKHLKTMGLLSPDFREDDETEINFLLKQALNIVGTLPFTYMLEKWRWMVFKGEIPKEEWMKKWWEMKREIVGVVEPVPHDETYCDPASLFHVANDYSFIRYYTRTIFEFQFHEALCRIAQHNGPLHKCDISNSTDAGKKLHQMLSVGKSQAWTKTLEDIVDSRNMDVGPLLRYFKPLYTWLQEQNRKSYVGWNTDWSPYAD | 0.137 |  |  |
| bACE2-Rm (bat ACE2 from Rhinolophus macrotis) expressed in insect cells, residues 19 to 615 (domain or fragment) STTEDEAKKFLDKFNSKAEDLSYESSLASWDYNTNISDENVQKMDEAGAKWSAFYEEQSKLAKNYPLEEIQNDTVKRQLQILQQSGSPVLSEDKSKRLNSILNAMSTIYSTGKVCKPNNPQECLLLEPGLDNIMGTSKDYNERLWAWEGWRAEVGKQLRPLYEEYVVLKNEMARGYHYEDYGDYWRRDYETEESSGPGYSRDQLMKDVDRIFTEIKPLYEHLHAYVRAKLMDTYPLHISPTGCLPAHLLGDMWGRFWTNLYPLTVPFGQKPNIDVTDAMLNQGWDANRIFKEAEKFFVSVSLPKMTEGFWNKSMLTEPGDGRKVVCHPTAWDLGKGDFRIKMCTKVTMEDFLTAHHEMGHIQYDMAYASQPYLLRNGANEGFHEAVGEVMSLSVATPKHLKTMGLLSPDFREDDETEINFLLKQALNIVGTLPFTYMLEKWRWMVFKGEIPKEEWMKKWWEMKREIVGVVEPVPHDETYCDPASLFHVANDYSFIRYYTRTIFEFQFHEALCRIAQHNGPLHKCDISNSTDAGKKLHQMLSVGKSQAWTKTLEDIVDSRNMDVGPLLRYFKPLYTWLQEQNRKSYVGWNTDWSPYAD |  | 1.5 |  |
| bACE2-Rm residues 19 to 615 fused to the mouse Fc tag (bACE2-Rm-mFc) (Fc fusion, also called bACE2-Rm-HEK293T cells; bACE2-Rm-WT) STTEDEAKKFLDKFNSKAEDLSYESSLASWDYNTNISDENVQKMDEAGAKWSAFYEEQSKLAKNYPLEEIQNDTVKRQLQILQQSGSPVLSEDKSKRLNSILNAMSTIYSTGKVCKPNNPQECLLLEPGLDNIMGTSKDYNERLWAWEGWRAEVGKQLRPLYEEYVVLKNEMARGYHYEDYGDYWRRDYETEESSGPGYSRDQLMKDVDRIFTEIKPLYEHLHAYVRAKLMDTYPLHISPTGCLPAHLLGDMWGRFWTNLYPLTVPFGQKPNIDVTDAMLNQGWDANRIFKEAEKFFVSVSLPKMTEGFWNKSMLTEPGDGRKVVCHPTAWDLGKGDFRIKMCTKVTMEDFLTAHHEMGHIQYDMAYASQPYLLRNGANEGFHEAVGEVMSLSVATPKHLKTMGLLSPDFREDDETEINFLLKQALNIVGTLPFTYMLEKWRWMVFKGEIPKEEWMKKWWEMKREIVGVVEPVPHDETYCDPASLFHVANDYSFIRYYTRTIFEFQFHEALCRIAQHNGPLHKCDISNSTDAGKKLHQMLSVGKSQAWTKTLEDIVDSRNMDVGPLLRYFKPLYTWLQEQNRKSYVGWNTDWSPYAD |  | 2.78 |  |
